The experiment concerns the target interleukin 13 receptor (IL13R) (human). Kind of experiment: cell-based or functional assay.

Experimental findings from patent publication US20110091460A1 are described below.

DTIL13 (ligand) came in with an IC50, inhibition of Calu-3 cell growth (3H-thymidine proliferation assay, 72 h) of 3.1 nM; an IC50, inhibition of HT-29 cell growth (3H-thymidine proliferation assay, 72 h) of 95 nM; an IC50, inhibition of PC-3 cell growth (3H-leucine proliferation assay, 72 h) of 0.038 nM; an IC50, killing of DU-145 cells (3H-thymidine proliferation assay, 72 h) of more than 100 nM. The substance also registered an IC50, killing of U87 MG cells (3H-thymidine proliferation assay, 72 h) of 10 nM and an IC50, killing of U118 cells (3H-thymidine proliferation assay, 72 h) of 2 nM.
